The supplement of paper PMC9170038

Test system: MS2 coat protein
Assay: apparent KD of MS2 coat protein; designed switch direction (-1 OFF switch, 1 ON switch): 1; higher = weaker reporter binding
Summary of the method: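 Normalised cluster fluorescence was curve-fitted, and each design's median over clusters is its apparent KD. Before this, SNAP-549-labelled MS2 coat protein was titrated from 0.7 or 1.5 nM, doubling to 3 µM, over RNA switches transcribed on Illumina chips by stalled E. coli RNA polymerase. Titrations had no input, 200 uM small-molecule ligand, or an oligonucleotide input, and steps lasted 0.8–1.5 h (lowest) to 10–20 min (highest).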

[1] = Eterna round: R95, input ligand: FMN 200 uM
[2] = Eterna round: R95, input ligand: microRNA oligo, concentration not stated
[3] = Eterna round: R95, input ligand: none
[4] = input ligand: microRNA oligo, concentration not stated

## AAAACAGGCUUCCUCUCGUCUCAAAAUGCACAUGAGGAUCACCCAUGUAAAACCCAGCGUAGUGUCGCACUACCUGA [Laresoar] (puzzle: Sensor for hsa-mir-208a)
[1]
  apparent KD of MS2 coat protein: 161 nM
[2]
  apparent KD of MS2 coat protein: 23.4 nM
[3]
  apparent KD of MS2 coat protein: 126 nM

## AAUUAUUAACAUGAGGAUCACCCAUGUGUUUUUGGGCUCGUUUUAUUUAUUAUUAUUAUUAUUAUUAUUAUUAUUAA [SB switch1] (puzzle: Sensor for hsa-mir-208a version 2)
[1]
  apparent KD of MS2 coat protein: 85.3 nM
[2]
  apparent KD of MS2 coat protein: 69.1 nM
[3]
  apparent KD of MS2 coat protein: 154 nM

## GUUAGGAAUCUAGCAUACAUGAGGAUCACCCAUGUAAGUGGGAAGGAUAUGGUACAGAAACUGUACCAGAAGGUCUUAUUGUUU [Omei SS(NG) 3 AV7] (Eterna round: R96, puzzle: Same State NG 3)
Input ligand: FMN 200 uM
  apparent KD of MS2 coat protein: 149 nM
[4]
  apparent KD of MS2 coat protein: 366 nM
Input ligand: none
  apparent KD of MS2 coat protein: 330 nM

## UUACAGUGCGGGUAGGAUAUGUAGGGUGGUACAUGAGGAUCACCCAUGUAUCCACCCUUCUACCGGCAGAAGGGCCUGUCACUGC [Enlaeror] (Eterna round: R96, puzzle: Same State 2)
Input ligand: FMN 200 uM
  apparent KD of MS2 coat protein: 17.2 nM
[4]
  apparent KD of MS2 coat protein: 9.64 nM
Input ligand: none
  apparent KD of MS2 coat protein: 17 nM

## AACAAUCUAUCUCAGGAUAUCAUGUCAAAGACAUGAGGAUCACCCAUGUACCAGGAAACUGGUUAUGAGAAGGGAGAUAGAUUGU [Mat - Same State 2 - Mod - D23] (puzzle: Same State 2)
[1]
  apparent KD of MS2 coat protein: 157 nM
[2]
  apparent KD of MS2 coat protein: 68.2 nM
[3]
  apparent KD of MS2 coat protein: 268 nM

## AUGAUCUACCGAAAGGUAGAUCGGCUUGUACAUGAGGAUCACCCAUGUAUGUACAAGCUUUUUGCUCGUCUUAUAAA [Modxample - Jieux - Sensor for bsa-mir-208a] (Eterna round: R96, puzzle: Sensor for hsa-mir-208a)
Input ligand: FMN 200 uM
  apparent KD of MS2 coat protein: 279 nM
[4]
  apparent KD of MS2 coat protein: 16.6 nM
Input ligand: none
  apparent KD of MS2 coat protein: 282 nM

## CGUCGUUUGCUAGGAUAUCGCUAUACAUGAGGAUCACCCAUGUUUACCACGCUGGUUUUUCAUACCGAGAAGGAUUCUGAUGUU [salish99_SSNG02_r04_018] (Eterna round: R96, puzzle: Same State NG 2)
Input ligand: FMN 200 uM
  apparent KD of MS2 coat protein: 24 nM
[4]
  apparent KD of MS2 coat protein: 28.7 nM
Input ligand: none
  apparent KD of MS2 coat protein: 34.1 nM

## UUAAGCAACGGGCAGGAUAUGUAUUAAAAUACAUGAGGAUCACCCAUGUGCAGGUGUAACACCUGACAGAAGGGCCAAUCGGUGC [Soteed - 8] (puzzle: Same State 2)
[1]
  apparent KD of MS2 coat protein: 39.5 nM
[2]
  apparent KD of MS2 coat protein: 256 nM
[3]
  apparent KD of MS2 coat protein: 409 nM

## AGUCCAGCCUGAGCUGGACAAAAGCAUGUACAUGAGGAUCACCCAUGUCAUGUACAAGCUUUUUGCUCGUCUAAAAG [Mat - hsa-mir-208a - Mod of JL - D7] (puzzle: Sensor for hsa-mir-208a)
[1]
  apparent KD of MS2 coat protein: 272 nM
[2]
  apparent KD of MS2 coat protein: 17.6 nM
[3]
  apparent KD of MS2 coat protein: 406 nM

## AGUCCAGCCUGAGCUGGACAAAAGCAUGUACAUGAGGAUCACCCAUGUUCAUGUACAAGCUUUUUGCUCGUAUUAAA [Mat - hsa-mir-208a - Mod of JL - 52] (puzzle: Sensor for hsa-mir-208a)
[1]
  apparent KD of MS2 coat protein: 555 nM
[2]
  apparent KD of MS2 coat protein: 14.8 nM
[3]
  apparent KD of MS2 coat protein: 566 nM

## UGGCUCAGACGAGGAUAUAUGCGAUCACAUGAGGAUCACCCAUGUCUCGAGCUUCGGCUCGAGGCAUAGAAGGCGUCUGAGCCA [SSNG2/4-A2] (Eterna round: R96, puzzle: Same State NG 2)
Input ligand: FMN 200 uM
  apparent KD of MS2 coat protein: 15.8 nM
[4]
  apparent KD of MS2 coat protein: 28 nM
Input ligand: none
  apparent KD of MS2 coat protein: 32.5 nM

## GGCCUGCCGCAAGGAUAUGAAGCUUUCGCUCCGUCAGAAGGUGCACAUGAGGAUCACCCAUGUAGGCAGGCCAAGAACUAAAAC [Veveanus] (Eterna round: R96, puzzle: Same State NG 1)
Input ligand: FMN 200 uM
  apparent KD of MS2 coat protein: 213 nM
[4]
  apparent KD of MS2 coat protein: 42 nM
Input ligand: none
  apparent KD of MS2 coat protein: 123 nM

## AUUGCUAUCACAGGAUAUCAUGCGAAAAUUGCGUGAGAAGGGUGGACUCUGUCAUUGCCGGAGGACAUGAGGAUCACCCAUGUC [SameState NG1 #100] (Eterna round: R96, puzzle: Same State NG 1)
Input ligand: FMN 200 uM
  apparent KD of MS2 coat protein: 96.2 nM
[4]
  apparent KD of MS2 coat protein: 27 nM
Input ligand: none
  apparent KD of MS2 coat protein: 60.9 nM

## CGCCAGAGAACAGGAUAUGGGCCGCAGCCUAUGGGCCGCGAACUCACAUGAGGAUCACCCAUGUCCCAGAAGGGUUCCUGGCUG [Tiusonon] (Eterna round: R96, puzzle: Same State NG 2)
Input ligand: FMN 200 uM
  apparent KD of MS2 coat protein: 154 nM
[4]
  apparent KD of MS2 coat protein: 596 nM
Input ligand: none
  apparent KD of MS2 coat protein: 2070 nM

## GCUAGAAAUAAAGCCAACAUGAGGAUCACCCAUGUAUGUUGGUAGGAUAUCGUUUGCAAAGCAAACGAGAAGGGCUAAACUAGC [Mat - Same State NG 3 - JL Mod - D17] (Eterna round: R96, puzzle: Same State NG 3)
Input ligand: FMN 200 uM
  apparent KD of MS2 coat protein: 61.6 nM
[4]
  apparent KD of MS2 coat protein: 68.8 nM
Input ligand: none
  apparent KD of MS2 coat protein: 61 nM

## AGGUACAACGGAGGAUAUAAUAGUCUAUAGACGUUAGAAGGCCGGGCCUUCACAUGAGGAUCACCCAUGUCUCUGGAGGCGCCU [Eternabot solution 11] (Eterna round: R96, puzzle: Same State NG 1)
[4]
  apparent KD of MS2 coat protein: 16.8 nM

## AACAUGUGGUGUCACAUGAGGAUCACCCAUGUGGUAAAACCUGAGGAUAUAAAGAAAAAAAUCAAUUAGAAGGUAGGAUCACAA [AK SSNG3-V2-18.1] (Eterna round: R96, puzzle: Same State NG 3)
Input ligand: FMN 200 uM
  apparent KD of MS2 coat protein: 16.4 nM
[4]
  apparent KD of MS2 coat protein: 26.2 nM
Input ligand: none
  apparent KD of MS2 coat protein: 32.5 nM

## AGUCCAGCCUGAGCUGGACAAAAGCAUGUACAUGAGGAUCACCCAUGUUAUGUACAAGCUUUUUGCUCGUCUUAAUA [Zipper 49 - 10] (puzzle: Sensor for hsa-mir-208a)
[1]
  apparent KD of MS2 coat protein: 165 nM
[2]
  apparent KD of MS2 coat protein: 14.3 nM
[3]
  apparent KD of MS2 coat protein: 238 nM

## GCCGCAAGGGCAGGAUAUGGGUCCAGAGCGCAAAUGCGCUCUGGUACAUGAGGAUCACCCAUGUCCCAGAAGGGCCCAAGCGAC [Xeatvearbe] (Eterna round: R96, puzzle: Same State NG 2)
Input ligand: FMN 200 uM
  apparent KD of MS2 coat protein: 14.6 nM
[4]
  apparent KD of MS2 coat protein: 88.6 nM
Input ligand: none
  apparent KD of MS2 coat protein: 130 nM

## GCCGCGUUUCGCGCCUACAUGAGGAUCACCCAUGUAUGUAGGCAGGAUAUCGUUUGCUUUGCAAACGAGAAGGGCUGUAGUGGC [salish99_SSNG3_R04_008] (Eterna round: R96, puzzle: Same State NG 3)
Input ligand: FMN 200 uM
  apparent KD of MS2 coat protein: 70.4 nM
[4]
  apparent KD of MS2 coat protein: 165 nM
Input ligand: none
  apparent KD of MS2 coat protein: 188 nM

## UUCGAGUAGCAAGGAUAUCUUAUUUAGAUUUUAAGAGAAGGUGCUUCACAGCUACAUGAGGAUCACCCAUGUCUUUCUUCUUAU [JR_SSNG1_Sub065] (Eterna round: R96, puzzle: Same State NG 1)
[4]
  apparent KD of MS2 coat protein: 27.3 nM

## GCUAGGAUUAAAGCCAACAUGAGGAUCACCCAUGUAUGUUGGUAGGAUAUCGUUUGCUUUGCAAACGAGAAGGGCUAACCUAGC [JL SSNG3 1.23] (Eterna round: R96, puzzle: Same State NG 3)
Input ligand: FMN 200 uM
  apparent KD of MS2 coat protein: 70.6 nM
[4]
  apparent KD of MS2 coat protein: 57.8 nM
Input ligand: none
  apparent KD of MS2 coat protein: 62.1 nM

## GGUGGGUUACUACCCACACAUGAGGAUCACCCAUGUAUUGGGAAGGAUAUGGUGCCUGUGUGGUACCAGAAGGUCCUGAAGGUG [SS-NG3-LRO18] (Eterna round: R96, puzzle: Same State NG 3)
Input ligand: FMN 200 uM
  apparent KD of MS2 coat protein: 1360 nM
[4]
  apparent KD of MS2 coat protein: 1030 nM
Input ligand: none
  apparent KD of MS2 coat protein: 2130 nM

## CGUAGGUAGCUGGAGGAUAUUCGAGUGGUAACAUGAGGAUCACCCAUGUGGAGUUAUUUACAUGAGGAGAAGGCUAGCUGCCUGC [JL-ss2-3.16 JL mod] (puzzle: Same State 2)
[1]
  apparent KD of MS2 coat protein: 14.3 nM
[2]
  apparent KD of MS2 coat protein: 107 nM
[3]
  apparent KD of MS2 coat protein: 136 nM

## CGUCCAGCCUGAGCUGGACAAAAGCAUGUACAUGAGGAUCACCCAUGUUCAUGUACAAGCUUUUUGCUCGUCUUAUA [salish99_208a_r3_046] (puzzle: Sensor for hsa-mir-208a)
[1]
  apparent KD of MS2 coat protein: 585 nM
[2]
  apparent KD of MS2 coat protein: 13.9 nM
[3]
  apparent KD of MS2 coat protein: 479 nM

## GCUCGAUGAAAGUCCUACAUGAGGAUCACCCAUGUACGUGGGCAGGAUAUCUACAUGCAGAAUGUAGAGAAGGGCCCGUCGAGC [SameState NG3 #58] (Eterna round: R96, puzzle: Same State NG 3)
Input ligand: FMN 200 uM
  apparent KD of MS2 coat protein: 15.1 nM
[4]
  apparent KD of MS2 coat protein: 16.5 nM
Input ligand: none
  apparent KD of MS2 coat protein: 17.4 nM

## GGUCGGACUCACAUGAGGAUCACCCAUGUUGCGGAAACGCCAUAGGAUAUCUGUCCGAAAAGGUCAGAGAAGGGUGAACCGACC [Fiskers NG3ss - 65] (Eterna round: R96, puzzle: Same State NG 3)
Input ligand: FMN 200 uM
  apparent KD of MS2 coat protein: 515 nM
[4]
  apparent KD of MS2 coat protein: 391 nM
Input ligand: none
  apparent KD of MS2 coat protein: 572 nM

## UUAACAUGAGGAUCACCCAUGUAUAGGGAGUUAGCAAUUGGACAGGAUAUUGAAGAUGUAGAUAGCAAGAAGGGUCGGUAGUCU [JR_SSNG3_Sub002] (Eterna round: R96, puzzle: Same State NG 3)
Input ligand: FMN 200 uM
  apparent KD of MS2 coat protein: 36.8 nM
[4]
  apparent KD of MS2 coat protein: 32.9 nM
Input ligand: none
  apparent KD of MS2 coat protein: 46.7 nM

## AUAUGAGGAGCAGGAUAUGCGAAGAAGAAAGAAGCAGAAGGGCUCAUGGGACGACAUGAGGAUCACCCAUGUACUUCGCGAUGA [AK SSNG1-V2-6] (Eterna round: R96, puzzle: Same State NG 1)
Input ligand: FMN 200 uM
  apparent KD of MS2 coat protein: 133 nM
[4]
  apparent KD of MS2 coat protein: 278 nM
Input ligand: none
  apparent KD of MS2 coat protein: 538 nM

## UCUUGGUUUUUGCUCGUUUUUUGUGUUGAACAUGAGGAUCACCCAUGUAUUGUACAAUCCGGUUUGAUGAUGGUCCG [JMF 52] (puzzle: Sensor for hsa-mir-208a)
[1]
  apparent KD of MS2 coat protein: 57.2 nM
[2]
  apparent KD of MS2 coat protein: 44.5 nM
[3]
  apparent KD of MS2 coat protein: 54.1 nM

## GACAAGAAGUCAUAGGAUAUACAAGGAGUGACAUGAGGAUCACCCAUGUACCAUCACACUACCCAGUAGAAGGAUGGCAAUAAAA [Oranor] (puzzle: Same State 2)
[1]
  apparent KD of MS2 coat protein: 50.3 nM
[2]
  apparent KD of MS2 coat protein: 384 nM
[3]
  apparent KD of MS2 coat protein: 542 nM
